The record followed here is PMC4636849.

This series deals with H-NS. Kind of series: EMSA. The note with it: EMSA: ~5 ng DNA, 50 ng poly(dI-dC), 15 ul, 20 C 10 min; binding buffer not stated (cited); 7% polyacrylamide gel in TAE (Tris-HCl 40 mM pH 7.4, Na acetate …). (In general: A gel shift assay detects complexes by their altered migration in electrophoresis.)

Take “mdtJI promoter fragment, 588 bp (-229 to +359)”: the K half was 320 nM.
